Experimental data as given in patent publication US20230398228A1, “ERIBULIN-BASED ANTIBODY-DRUG CONJUGATES AND METHODS OF USE” (EISAI R&D MANAGEMENT CO., LTD., priority 2016, published 2023).
Where “and” joins values, the source holds several entries; their conditions need not be identical. Equal entries are not always repeated. Where two headings read alike, the source gives them in different places.

What was measured:
[1] = tested on: Endo-10590 endometrial cancer patient-derived xenograft; experiment: Endometrial cancer PDx model Endo-10590
Experimental: Tumor fragments were implanted subcutaneously into the left flank of 40 NMRI nu/nu female mice, and tumor volume was monitored. Mice with a tumor volume of 100-160 mm^3 were randomized into one of four groups (Groups A-D, Table 39). […] Each group consisted of 8 animals. The day of randomization was designated as Day 0 of the experiment.
Tumor growth was evaluated by the measurement of two perpendicular diameters twice weekly, and tumor volume (TV), relative tumor volume (RTV) and treated/control (T/C) values were calculated. Body weight was also evaluated twice weekly as a parameter for toxicity, with the calculation of the body weight per group and body weight changes (BWC) relative to the start of treatment. Animals were sacrificed when the individual tumor volume exceeded 1 cm^3, or at the end of the study.

[2] = tested on: cancer associated fibroblasts (α-smooth muscle actin) in H2110 xenograft; conditions: 5 mg/kg single dose
Experimental: Prior to staining, slides were dewaxed and antigen was retreived in a Lab Vision™ PT Module (Thermo Scientific), in citrate buffer (pH 6.0) pre-warmed to 85° C., using the following program: warm to 97° C.; incubate at 97° C. for 30 min; and cool to 60° C. Slides were then transferred to double distilled water at room temperature for 5 min. Staining was performed in a Lab Vision™ Autostainer 360 (Thermo Scientific). Briefly, slides were washed twice in 1×Tris-buffered saline/Tween-20 (TBST) for 6 min/wash. Tissue sections were then incubated in blocking buffer (300 μL) (10% goat serum (Jackson Immunoresearch Laboratory Inc., Cat No. 005-000-121) diluted in 3% bovine serum albumin (BSA)-phosphate buffered saline (PBS)) for 1 hour, incubated in conjugated antibody (200 μL) (Table 38) for 1 hour, and washed five times in 1×TBST for 6 min/wash. Slides were counterstained with DAPI in mounting media, and coverslipped slides were allowed to harden for 30 min. Slides were processed on a Panoramic MIDI scanner (3[sequence]), and IHC images were analyzed using Halo software (Indica Labs).
Collected tumor samples were processed on slides, and cancer associated fibroblast (CAF) expression was analyzed by IHC.

NCI-N87 cells = experiment: Crystal Violet cytotoxicity assay (Example 4), NCI-N87; format: cell-based, human
Experimental: Test reagents were serial diluted 1:3 in 2 mL deep-well dilution plates, starting at 200 nM (10 dilutions total). […] Medium was then discarded. […] Plates were read at 570 nm. Data was analyzed using GraphPad Prism 6.

[3] = Maximum tolerated dose of MORAb-202 in CD-1 mice; format: in vivo, mouse; conditions: CD-1 mice
Experimental: Body weight was measured prior to dose on the dosing day, 24 hours post dose, and three times a week thereafter. […] Two weeks after dosing, the terminal body weight was measured and recorded. Euthanized mice at the end of the study (and if any mouse euthanized or found dead during the study) were processed for necropsy. Organs were examined for signs of tissue damage.

MORAb-003-maleimido-PEG2-Val-Cit-pAB-eribulin [MORAb-202]
tumor re-growth during the study, in words ([1]; MORAb-202 5 mg/kg or eribulin 3.2 mg/kg): no significant tumor re-growth
anti-tumor activity, in words ([1]; MORAb-202 5 mg/kg or eribulin 3.2 mg/kg, single i.v. dose): significant anti-tumor activity
effect on body weight, in words ([1]; first week post-treatment): no body weight loss
CAF network structure (anti-α-SMA-FITC staining), in words ([2]; Day 3 and Day 5): prominent
CAF network structure (anti-α-SMA-FITC staining), in words ([2]; by Day 7): significantly diminished
cytotoxicity on NCI-N87 cells, in words (NCI-N87 cells): weak but specific killing
Body weight of individual mice ([3]; 10 mg/kg single bolus i.v., day 0 post Rx): 22.60 g and 23.50 g and 21.80 g
Body weight, group mean ([3]; 10 mg/kg single bolus i.v., day 0 post injections): 22.6 g
Body weight of individual mice ([3]; 10 mg/kg single bolus i.v., day 1 post Rx): 22.80 g and 23.80 g
Body weight, group mean ([3]; 10 mg/kg single bolus i.v., day 1 post injections): 23.2 g
Body weight of individual mice ([3]; 10 mg/kg single bolus i.v., day 2 post Rx): 23.30 g and 24.00 g and 22.90 g
Body weight, group mean ([3]; 10 mg/kg single bolus i.v., day 2 post injections): 25.4 g
Body weight of individual mice ([3]; 10 mg/kg single bolus i.v., day 4 post Rx): 23.30 g (2×) and 23.90 g
Body weight, group mean ([3]; 10 mg/kg single bolus i.v., day 4 post injections): 23.5 g
Body weight of individual mice ([3]; 10 mg/kg single bolus i.v., day 7 post Rx): 24.80 g and 25.20 g and 24.90 g
Body weight, group mean ([3]; 10 mg/kg single bolus i.v., day 7 post injections): 25.0 g
Body weight of individual mice ([3]; 10 mg/kg single bolus i.v., day 9 post Rx): 24.90 g and 25.30 g and 25.00 g
Body weight, group mean ([3]; 10 mg/kg single bolus i.v., day 9 post injections): 25.1 g
Body weight of individual mice ([3]; 10 mg/kg single bolus i.v., day 11 post Rx): 24.30 g (2×) and 25.10 g
Body weight, group mean ([3]; 10 mg/kg single bolus i.v., day 11 post injections): 24.6 g
Body weight of individual mice ([3]; 10 mg/kg single bolus i.v., day 14 post Rx): 25.80 g and 25.60 g and 25.70 g
Body weight, group mean ([3]; 10 mg/kg single bolus i.v., day 14 post injections): 25.7 g
Body weight of individual mice ([3]; 20 mg/kg single bolus i.v., day 0 post Rx): 27.40 g and 26.20 g and 21.00 g
Body weight, group mean ([3]; 20 mg/kg single bolus i.v., day 0 post injections): 24.9 g
Body weight of individual mice ([3]; 20 mg/kg single bolus i.v., day 1 post Rx): 28.80 g and 27.50 g and 21.40 g
Body weight, group mean ([3]; 20 mg/kg single bolus i.v., day 1 post injections): 25.9 g
Body weight of individual mice ([3]; 20 mg/kg single bolus i.v., day 2 post Rx): 29.30 g and 29.00 g and 22.10 g
Body weight, group mean ([3]; 20 mg/kg single bolus i.v., day 2 post injections): 26.8 g
Body weight of individual mice ([3]; 20 mg/kg single bolus i.v., day 4 post Rx): 30.20 g and 31.00 g
Body weight, group mean ([3]; 20 mg/kg single bolus i.v., day 4 post injections): 28.1 g
Body weight of individual mice ([3]; 20 mg/kg single bolus i.v., day 7 post Rx): 29.60 g and 32.00 g and 24.00 g
Body weight, group mean ([3]; 20 mg/kg single bolus i.v., day 7 post injections): 28.5 g
Body weight of individual mice ([3]; 20 mg/kg single bolus i.v., day 9 post Rx): 30.80 g and 31.70 g and 23.40 g
Body weight, group mean ([3]; 20 mg/kg single bolus i.v., day 9 post injections): 28.6 g
Body weight of individual mice ([3]; 20 mg/kg single bolus i.v., day 11 post Rx): 31.00 g and 32.40 g and 23.80 g
Body weight, group mean ([3]; 20 mg/kg single bolus i.v., day 11 post injections): 29.1 g
Body weight of individual mice ([3]; 20 mg/kg single bolus i.v., day 14 post Rx): 33.20 g and 32.40 g and 24.10 g
Body weight, group mean ([3]; 20 mg/kg single bolus i.v., day 14 post injections): 29.9 g
Body weight of individual mice ([3]; 40 mg/kg single bolus i.v., day 0 post Rx): 23.80 g and 23.30 g and 21.70 g
Body weight, group mean ([3]; 40 mg/kg single bolus i.v., day 0 post injections): 22.9 g
Body weight of individual mice ([3]; 40 mg/kg single bolus i.v., day 1 post Rx): 23.60 g and 23.50 g and 21.60 g
Body weight, group mean ([3]; 40 mg/kg single bolus i.v., day 1 post injections): 22.9 g
